Source: patent publication US20260022169A1 (published 2026)

Biological target: T1, CLDN18.2 (UniProt P56856 1-261)
T1 chain: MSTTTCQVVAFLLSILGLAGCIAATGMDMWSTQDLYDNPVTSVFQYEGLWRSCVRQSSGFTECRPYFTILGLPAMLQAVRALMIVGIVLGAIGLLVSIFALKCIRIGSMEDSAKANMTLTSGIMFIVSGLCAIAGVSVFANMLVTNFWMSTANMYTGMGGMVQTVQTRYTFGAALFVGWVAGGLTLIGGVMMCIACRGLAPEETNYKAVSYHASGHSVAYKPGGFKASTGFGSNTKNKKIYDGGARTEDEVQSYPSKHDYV
Assay: FACS binding, MC38/CD47/CLDN18.2 cells

EC50: 3.24 nM
B1: hu28 (antibody, V domains shown)
VH: QVQLVQSGAEVKKPGASVKVSCKASGYTFTNWVHWVRQAPGQGLEWMGEINPTNARSNYNEKFKKRVTMTRDTSTSTVYMELSSLRSEDTAVYYCARIYYGNSFAHWGQGTLVTVSS
VL: DIVMTQSPDSLAVSLGERATINCKSSQSLLNAGNQKNYLTWYQQKPGQPPKLLIYWSSTRESGVPDRFSGSGSGTDFTLTISSLQAEDVAVYHCQNNYYYPLTFGGGTKLEIKR
